Measured values taken from US20240254223A1 (NOVIMMUNE, published 2024).

Columns and labels:
[1] = molecular target: T1, CD47 at the surface of Peak cells (human, UniProt Q08722 19-323); assay: flow cytometry, Peak cells, after MMP-9 treatment
T1 construct: whole, on cells; also called cell surface CD47
Method: Binding activity of antibody-cytokine/receptor fusions before and after cleavage was also evaluated by flow cytometry. Peak cells derived from HEK 293 which are human cells expressing CD47 were used to evaluate masking efficacy and binding recovery to CD47 by flow cytometry. Peak cells were diluted in cold FACS buffer (PBS, 2% BSA) to 1.2×10⁶ cells/mL. 3×10⁵ cells/well were added in a 96 well V-bottom plate. The plate was then centrifugated for 5 min at 1300 rpm, 4° C. Supernatants were removed and cells were washed twice using FACS buffer. A serial dilution of antibody-cytokine/receptor fusions previously digested with MMP-9 or not digested as described above was prepared in FACS buffer. An irrelevant antibody was included. Then, 150 μL of each diluted antibody were added in corresponding well and incubated for 30 min at 4° C. Cells were washed twice with FACS buffer and 100 μL of a mouse anti human Fc-PE conjugated secondary antibody were added and the plate was incubated for 20 min at 4° C. Cells were then washed twice with FACS buffer. Finally, 150 μL of SYTOX blue dead cell stain (ThermoFisher) diluted to 1/5000 in FACS buffer were added before detection by flow cytometry with Cytoflex (Beckman Coulter). Acquisition was performed with 10000 events for each well. Data were analyzed by FlowJo software.

[2] = molecular target: T2, low-moderate affinity dimeric IL-2R (IL-2Rβ and IL-2Rγ) on HEK-Blue CD122/CD132 cells (UniProt P14784 27-551; P31785 23-369, limits assumed); assay: cell-based or functional assay
T2 sequence (looked up) 1: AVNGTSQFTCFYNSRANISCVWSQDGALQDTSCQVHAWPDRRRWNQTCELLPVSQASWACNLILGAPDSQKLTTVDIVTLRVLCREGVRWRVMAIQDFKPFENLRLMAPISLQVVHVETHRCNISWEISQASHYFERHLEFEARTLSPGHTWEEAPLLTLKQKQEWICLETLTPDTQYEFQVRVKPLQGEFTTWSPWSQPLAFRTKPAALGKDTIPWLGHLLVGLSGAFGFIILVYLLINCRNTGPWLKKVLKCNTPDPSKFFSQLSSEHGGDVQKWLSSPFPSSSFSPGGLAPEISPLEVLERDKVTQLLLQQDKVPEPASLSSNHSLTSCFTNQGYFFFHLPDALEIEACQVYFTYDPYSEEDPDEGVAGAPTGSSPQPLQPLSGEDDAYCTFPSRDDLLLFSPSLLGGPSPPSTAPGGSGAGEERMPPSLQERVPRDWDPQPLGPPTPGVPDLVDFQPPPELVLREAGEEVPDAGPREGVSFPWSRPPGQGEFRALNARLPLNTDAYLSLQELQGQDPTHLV
T2 sequence (looked up) 2: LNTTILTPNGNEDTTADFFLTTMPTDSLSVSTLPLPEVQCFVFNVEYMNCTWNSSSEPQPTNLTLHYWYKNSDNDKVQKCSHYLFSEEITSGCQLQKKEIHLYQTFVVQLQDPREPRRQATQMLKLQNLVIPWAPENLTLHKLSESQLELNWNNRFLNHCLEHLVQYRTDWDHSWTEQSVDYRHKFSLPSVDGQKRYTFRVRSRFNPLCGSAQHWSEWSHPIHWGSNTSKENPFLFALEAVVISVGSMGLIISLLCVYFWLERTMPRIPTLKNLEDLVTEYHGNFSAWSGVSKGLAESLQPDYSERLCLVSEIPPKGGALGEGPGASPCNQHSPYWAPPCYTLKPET

[3] = molecular target: T3, high affinity trimeric IL-2R (IL-2Rα, IL-2Rβ and IL-2Rγ) on HEK-Blue IL-2 cells (UniProt P01589 22-272; P14784 27-551; P31785 23-369); assay: cell-based or functional assay
T3 sequence (looked up) 1: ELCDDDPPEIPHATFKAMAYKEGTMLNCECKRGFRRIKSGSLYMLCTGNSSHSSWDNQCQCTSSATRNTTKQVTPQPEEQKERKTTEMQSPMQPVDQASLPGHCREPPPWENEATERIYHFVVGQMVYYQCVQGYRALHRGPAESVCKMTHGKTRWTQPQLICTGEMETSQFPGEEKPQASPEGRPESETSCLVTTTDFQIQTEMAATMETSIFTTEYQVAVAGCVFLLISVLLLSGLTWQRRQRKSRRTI
T3 sequence (looked up) 2: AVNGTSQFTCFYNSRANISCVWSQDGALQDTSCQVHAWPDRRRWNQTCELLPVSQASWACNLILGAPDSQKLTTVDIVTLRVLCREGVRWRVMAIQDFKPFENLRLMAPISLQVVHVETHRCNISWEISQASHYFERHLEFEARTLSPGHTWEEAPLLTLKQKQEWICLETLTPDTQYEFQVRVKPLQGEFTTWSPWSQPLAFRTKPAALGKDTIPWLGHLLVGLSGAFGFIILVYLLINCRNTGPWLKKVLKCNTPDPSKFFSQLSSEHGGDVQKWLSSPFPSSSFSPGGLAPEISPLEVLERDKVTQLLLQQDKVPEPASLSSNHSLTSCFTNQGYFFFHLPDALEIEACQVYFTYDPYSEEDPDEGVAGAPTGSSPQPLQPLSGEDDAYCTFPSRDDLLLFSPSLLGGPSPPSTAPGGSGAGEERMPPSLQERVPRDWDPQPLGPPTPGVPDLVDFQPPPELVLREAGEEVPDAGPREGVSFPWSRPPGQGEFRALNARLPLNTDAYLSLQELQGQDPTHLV
T3 sequence (looked up) 3: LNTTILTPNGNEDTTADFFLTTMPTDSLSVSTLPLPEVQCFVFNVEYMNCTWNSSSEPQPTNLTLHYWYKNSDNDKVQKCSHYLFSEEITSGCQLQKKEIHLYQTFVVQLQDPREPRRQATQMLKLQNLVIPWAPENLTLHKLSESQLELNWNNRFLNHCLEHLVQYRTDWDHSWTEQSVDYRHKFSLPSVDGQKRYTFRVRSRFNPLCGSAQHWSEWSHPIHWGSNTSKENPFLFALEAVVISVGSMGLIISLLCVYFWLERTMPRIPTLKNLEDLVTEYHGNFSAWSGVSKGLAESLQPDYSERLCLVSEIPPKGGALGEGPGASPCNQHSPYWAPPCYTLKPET

[4] = molecular target: T4, His-tagged human CD47 (human, UniProt Q08722 19-139, limits assumed); assay: BLI, His-CD47 on HIS1K sensor, after MMP-9 treatment
T4 construct: loaded on HIS1K biosensors at 2.5 µg/mL; also called target antigen; not shown: His tag
Method: The capacity of the masking domains to inhibit binding activity of the antibody was evaluated by Bio-Layer Interferometry (BLI). […] Binding experiments were performed to evaluate the masking efficiency and the binding recovery after cleavage of the masking domains. BLI was performed on an Octet RED96 system (Sartorius). His-tagged human CD47 was diluted at 2.5 μg/mL in Kinetic Buffer (KB) (Sartorius) and loaded on HIS1K biosensors (anti-His tag antibody biosensors, Sartorius) for 300 seconds. Loaded biosensors were dipped into antibodies diluted at 15 μg/mL in KB for 300 seconds to monitor association. Then, biosensors were transferred in KB for dissociation for 60 seconds. Binding profiles were then analyzed with ForteBio Data Analysis software.

Row | Binder | EC50 [1] | EC50 after cleavage IL-2, HEK Blue IL-2 βγ reporter assay [2] | EC50 after cleavage IL-2, HEK Blue IL-2 αβγ reporter assay [3] | Binding after cleavage (BLI) [4]
1 | Construct No 690 after cleavage by MMP-9 (antibody, MMP-9 digest of m24; the sample also holds the released IL-2Rα and IL-2; also called n690 after cleavage; not shown: remnant of CM1 and linker after MMP-9 cleavage) light: DIQMTQSPSSLSASVGDRVTITCNVDQVIANWLNWYQQKPGKAPKLLIYAASSLQSGVPSRFSGSGSGTDFTLTISSLQPEDFATYYCQQMHPRAPKQFGQGTKVEIKRTVAAPSVFIFPPSDEQLKSGTASVVCLLNNFYPREAKVQWKVDNALQSGNSQESVTEQDSKDSTYSLSSTLTLSKADYEKHKVYACEVTHQGLSSPVTKSFNRGEC heavy: not shown | 0.4 nM | 0.03 nM | 0.07 nM | –
2 | Construct No 490 after cleavage by MMP-9 (antibody, MMP-9 digest of m20; the sample also holds the released IL-2, IL-2Rα (to 185) and IL-2Rβ; also called n490 after cleavage; not shown: remnant of CM1 and linker after MMP-9 cleavage) light: DIQMTQSPSSLSASVGDRVTITCNVDQVIANWLNWYQQKPGKAPKLLIYAASSLQSGVPSRFSGSGSGTDFTLTISSLQPEDFATYYCQQMHPRAPKQFGQGTKVEIKRTVAAPSVFIFPPSDEQLKSGTASVVCLLNNFYPREAKVQWKVDNALQSGNSQESVTEQDSKDSTYSLSSTLTLSKADYEKHKVYACEVTHQGLSSPVTKSFNRGEC heavy: not shown | 0.5 nM | – | 0.01 nM | –
3 | Construct No 2 after cleavage by MMP-9 (antibody, MMP-9 digest of m3; the sample also holds the released IL-2; also called n2 after cleavage; not shown: remnant of CM1 and linker after MMP-9 cleavage) light: DIQMTQSPSSLSASVGDRVTITCNVDQVIANWLNWYQQKPGKAPKLLIYAASSLQSGVPSRFSGSGSGTDFTLTISSLQPEDFATYYCQQMHPRAPKQFGQGTKVEIKRTVAAPSVFIFPPSDEQLKSGTASVVCLLNNFYPREAKVQWKVDNALQSGNSQESVTEQDSKDSTYSLSSTLTLSKADYEKHKVYACEVTHQGLSSPVTKSFNRGEC heavy: not shown | 0.4 nM | 0.09 nM | 0.11 nM | –
4 | Construct No 471 after cleavage by MMP-9 (antibody, MMP-9 digest of m17; the sample also holds the released IL-2, IL-2Rα and IL-2Rβ; also called n471 after cleavage; not shown: remnant of CM1 and linker after MMP-9 cleavage) light: DIQMTQSPSSLSASVGDRVTITCNVDQVIANWLNWYQQKPGKAPKLLIYAASSLQSGVPSRFSGSGSGTDFTLTISSLQPEDFATYYCQQMHPRAPKQFGQGTKVEIKRTVAAPSVFIFPPSDEQLKSGTASVVCLLNNFYPREAKVQWKVDNALQSGNSQESVTEQDSKDSTYSLSSTLTLSKADYEKHKVYACEVTHQGLSSPVTKSFNRGEC heavy: not shown | 0.3 nM | – | 0.01 nM | –
5 | Construct No 1021 after cleavage by MMP-9 (antibody, MMP-9 digest of m35; the sample also holds the released IL-2Rα and IL-2; also called n1021 after cleavage; not shown: remnant of CM1 and linker after MMP-9 cleavage) light: DIQMTQSPSSLSASVGDRVTITCNVDQVIANWLNWYQQKPGKAPKLLIYAASSLQSGVPSRFSGSGSGTDFTLTISSLQPEDFATYYCQQMHPRAPKQFGQGTKVEIKRTVAAPSVFIFPPSDEQLKSGTASVVCLLNNFYPREAKVQWKVDNALQSGNSQESVTEQDSKDSTYSLSSTLTLSKADYEKHKVYACEVTHQGLSSPVTKSFNRGEC heavy: not shown | 1.3 nM | – | 0.01 nM | 1.3 nm
6 | Construct No 450 after cleavage by MMP-9 (antibody, MMP-9 digest of m16; the sample also holds the released IL-2, IL-2Rα and IL-2Rβ; also called n450 after cleavage; not shown: remnant of CM1 and linker after MMP-9 cleavage) light: DIQMTQSPSSLSASVGDRVTITCNVDQVIANWLNWYQQKPGKAPKLLIYAASSLQSGVPSRFSGSGSGTDFTLTISSLQPEDFATYYCQQMHPRAPKQFGQGTKVEIKRTVAAPSVFIFPPSDEQLKSGTASVVCLLNNFYPREAKVQWKVDNALQSGNSQESVTEQDSKDSTYSLSSTLTLSKADYEKHKVYACEVTHQGLSSPVTKSFNRGEC heavy: not shown | 0.4 nM | – | 0.01 nM | –
